Measurements published in paper PMC4493910, “Cryo-EM structure of the bacteriophage T4 portal protein assembly at near-atomic resolution” (Nature Communications, 2015).

Experiments:
[1] = biological target: bacteriophage T4 major capsid protein gp23 (bacteriophage T4); assay: cryo-EM structure; purified emptied prolate heads of a gp13 amber mutant in 50 mM Tris pH 7.5, 1 mM MgCl2, 100 mM NaCl; fivefold symmetry, 10 Å; gp20 structure and a gp23 model fitted into the map
[2] = biological target: gp20 mutant in which the tunnel loop (residues 377–388) had been deleted (bacteriophage T4); assay: cryo-EM 2D classification of particles; oligomeric states counted in cryo-EM data of purified portals; gp20-N74 after a single gel filtration (narrow 500 μl fraction)
[3] = biological target: bacteriophage T4 portal protein gp20, construct gp20-N74 (residues 74–524) (bacteriophage T4) (UniProt P13334); assay: cryo-EM structure; single particles of gp20-N74 after two gel filtrations, 1 mg/ml in 20 mM Tris-HCl pH 7.8, 400 mM NaCl, 5 mM EDTA, 0.3% octyl-β-glucoside; 12-fold symmetry imposed, 3.6 Å
[4] = biological target: bacteriophage T4 portal protein gp20, construct gp20-N74 (residues 74–524) (bacteriophage T4) (UniProt P13334); assay: cryo-EM 2D classification of particles; oligomeric states counted in cryo-EM data of purified portals; gp20-N74 after a single gel filtration (narrow 500 μl fraction)
[5] = biological target: the molecule itself; assay: cryo-EM structure; purified emptied prolate heads of a gp13 amber mutant in 50 mM Tris pH 7.5, 1 mM MgCl2, 100 mM NaCl; fivefold symmetry, 10 Å; gp20 structure and a gp23 model fitted into the map

## bacteriophage T4 major capsid protein gp23 (natural protein)
[1]
  stoichiometry N: 6

## gp20 mutant in which the tunnel loop (residues 377–388) had been deleted (domain or fragment)
[2]
  percent of particles that are 11-mers: 28%
  percent of particles that are 13-mers: 4%

## bacteriophage T4 portal protein gp20, construct gp20-N74 (residues 74–524) (from UniProt P13334 74-524) (domain or fragment)
[3]
  percent of particles that are 12-mers: 95%
  percent of particles that are 13-mers: 5%
  stoichiometry N: 12
[4]
  percent of particles that are 11-mers: 0.1%
  percent of particles that are 12-mers: 90%
  percent of particles that are 13-mers: 9.9%

B1: bacteriophage T4 vertex protein gp24 (natural protein, UniProt P19896 11-427, looked up)
chain: STTTNSNSIGRPNLVALTRATTKLIYSDIVATQRTNQPVAAFYGIKYLNPDNEFTFKTGATYAGEAGYVDREQITELTEESKLTLNKGDLFKYNNIVYKVLEDTPFATIEESDLELALQIAIVLLKVRLFSDAASTSKFESSDSEIADARFQINKWQTAVKSRKLKTGITVELAQDLEANGFDAPNFLEDLLATEMADEINKDILQSLITVSKRYKVTGITDSGFIDLSYASAPEAGRSLYRMVCEMVSHIQKESTYTATFCVASARAAAILAASGWLKHKPEDDKYLSQNAYGFLANGLPLYCDTNSPLDYVIVGVVENIGEKEIVGSIFYAPYTEGLDLDDPEHVGAFKVVVDPESLQPSIGLLVRYALSANPYTVAKDEKEARIIDGGDMDKMAGRSDLSVLLGVKLPKIIIDE
notes: capsid vertex protein gp24 of bacteriophage T4, as present in fully expanded heads; source: emptied prolate heads of a T4 gp13 amber mutant, purified
[5]
  stoichiometry N: 5
